One assay deals with T1, rat Her3-his (rat, UniProt Q62799 20-643).
T1 construct: also called rat Her3 protein
In words: ELISA, rat Her3-his coated at 1 µg/mL, anti-human Fc-HRP. As to the method:
(§1) The affinity of anti-Her3 antibody to Her3 protein was detected by ELISA experimental method. Specific experimental procedures: human Her3-his, monkey Her3-his protein and rat Her3-his was diluted with carbonate buffer with a pH value of 9.6 to a final concentration of 1 μg/mL, and then added to 96-well enzyme labelling wells at 100 μL/well, and coated overnight at 4° C.; the coating solution was discarded, and the plate was washed once with PBST, then 100 μL of PBS (containing 2% BSA) was added to each well, and blocked at 37° C. for 1 h; then, 100 μL of anti-Her3 antibody diluted with PBS (containing 2% BSA) ((starting at 1 μg, 3 folds serial dilution, in duplicate wells) was added to each well, and then incubated at 37° C. for 2 h; the plate was washed three times with PBST, and horseradish peroxidase-labeled anti-human Fc antibody (diluted at 1:10000 with PBS) was added at 100 μL/well, then reacted for 1 h at 37° C. The plate was washed 5 times with PBST. TMB chromogenic solution was added at 100 μL/well and incubated at 37° C. for 7 min to develop color, and then the stop solution was added at 50 μL/well to terminate the reaction.

The target of a further assay is T2, monkey Her3-his (monkey).
T2 chain: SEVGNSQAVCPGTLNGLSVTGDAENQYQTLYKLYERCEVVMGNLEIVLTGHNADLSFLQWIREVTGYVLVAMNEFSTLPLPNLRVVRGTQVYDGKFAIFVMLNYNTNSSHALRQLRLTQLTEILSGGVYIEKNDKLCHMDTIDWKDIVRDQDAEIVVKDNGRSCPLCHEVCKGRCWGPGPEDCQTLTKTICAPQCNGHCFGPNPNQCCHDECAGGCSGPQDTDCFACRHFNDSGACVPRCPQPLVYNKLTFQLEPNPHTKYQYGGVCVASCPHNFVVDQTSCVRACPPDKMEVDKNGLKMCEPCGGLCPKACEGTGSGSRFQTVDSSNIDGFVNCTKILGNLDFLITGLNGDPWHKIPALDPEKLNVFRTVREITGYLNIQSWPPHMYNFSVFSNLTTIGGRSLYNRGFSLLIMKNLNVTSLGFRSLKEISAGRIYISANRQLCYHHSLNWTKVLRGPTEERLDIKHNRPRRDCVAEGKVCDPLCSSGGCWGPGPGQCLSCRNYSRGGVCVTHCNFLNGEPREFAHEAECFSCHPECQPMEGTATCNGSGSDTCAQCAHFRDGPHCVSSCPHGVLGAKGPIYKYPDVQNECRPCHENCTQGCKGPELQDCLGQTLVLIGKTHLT
Briefly: ELISA, antigen coated at 1 µg/mL, antibody titrated, anti-human Fc-HRP. Here is the method:
as §1
In general terms: In an ELISA, binding on a coated surface is turned into a signal by an enzyme label.

The next assay addresses T3, human Her3-his (human, UniProt P21860 20-643).
T3 construct: range 1-643; also called human Her3 protein
The description is as above. As to the method: as §1

T1 sequence (Q62799 other isoform, or with tags, fused parts or gaps): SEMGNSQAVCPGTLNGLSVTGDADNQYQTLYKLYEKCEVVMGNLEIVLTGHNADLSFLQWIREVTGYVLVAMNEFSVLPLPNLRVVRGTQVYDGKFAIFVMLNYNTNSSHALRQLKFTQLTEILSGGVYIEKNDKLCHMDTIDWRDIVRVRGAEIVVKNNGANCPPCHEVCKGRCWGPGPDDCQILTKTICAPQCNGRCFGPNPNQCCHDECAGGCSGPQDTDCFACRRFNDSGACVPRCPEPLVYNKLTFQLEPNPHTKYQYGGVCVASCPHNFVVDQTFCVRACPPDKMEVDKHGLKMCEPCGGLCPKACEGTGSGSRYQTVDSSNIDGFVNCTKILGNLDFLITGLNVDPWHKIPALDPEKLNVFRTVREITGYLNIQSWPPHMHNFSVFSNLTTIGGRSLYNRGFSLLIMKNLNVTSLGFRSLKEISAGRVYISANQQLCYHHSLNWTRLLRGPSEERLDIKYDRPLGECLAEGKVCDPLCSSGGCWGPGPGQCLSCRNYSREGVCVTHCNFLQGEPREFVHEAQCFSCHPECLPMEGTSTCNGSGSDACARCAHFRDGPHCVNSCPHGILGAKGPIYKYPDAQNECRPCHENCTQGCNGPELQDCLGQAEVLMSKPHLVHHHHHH

B1: anti-Her3 antibody 202-2-1 (antibody, human IgG1, kappa, V domains shown)
VH: EVQLVESGGGVVQPGRSLRLSCAASGFTFSTYGMHWVRQAPGKGLEWVAVIWYDVSHKYYADSVKGRFTISRDNSKNTLSLQMNSLRAEDTAVYYCARDWGDPDAFDIWGQGTMVTVSS
VL: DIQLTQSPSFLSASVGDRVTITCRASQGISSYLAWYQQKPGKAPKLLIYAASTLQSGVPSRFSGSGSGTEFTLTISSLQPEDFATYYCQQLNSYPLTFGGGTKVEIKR
notes: expressed in HEK293F; also called Her3mAb
Usually EC50 stands for the concentration at which the effect is half-maximal. B1: in the assay with rat Her3-his, the binding result is “no binding”. Further, the EC50 with monkey Her3-his turned out to be 15.9 pM; with human Her3-his, 21 pM.

The values above are taken from US20240108745A1 (MEDILINK THERAPEUTICS SUZHOU, published 2024).
